{"source": "paper PMC9554601", "target": "stabilized SARS-CoV-2 spike protein trimer (S-6P) (SARS-CoV-2) (UniProt P0DTC2)", "assay": "cryo-EM structure"}
{"substance": "stabilized SARS-CoV-2 spike protein trimer (S-6P) (from UniProt P0DTC2)", "values": [{"measurement": "stoichiometry N", "value": 3}]}
